Data taken from US20220000998A1 (STRIKE PHARMA, published 2022).

Molecular target: UU-30
Test: cell-based or functional assay

B1: X-SM083-bi-12 (bispecific antibody)
heavy: EVQLLESGGGLVQPGGSLRLSCAASGFTFSSYAMSWVRQAPGKGLEWVSGIGGSSSYTSYADSVKGRFTISRDNSKNTLYLQMNSLRAEDTAVYYCARYYSYHMDYWGQGTLVTVSSASTKGPSVFPLAPSSRSTSESTAALGCLVKDYFPEPVTVSWNSGALTSGVHTFPAVLQSSGLYSLSSVVTVPSSNFGTQTYTCNVDHKPSNTKVDKTVERKCCVECPPCPAPPVAGPSVFLFPPKPKDTLMISRTPEVTCVVVDVSHEDPEVQFNWYVDGVEVHNAKTKPREEQFNSTFRVVSVLTVVHQDWLNGKEYKCKVSNKGLPAPIEKTISKTKGQPREPQVYTLPPSREEMTKNQVSLTCLVKGFYPSDIAVEWESNGQPENNYKTTPPMLDSDGSFFLYSKLTVDKSRWQQGNVFSCSVMHEALHNHYTQKSLSLSPGKGGGGSGGGGSQVQLQQPGAELVMPGASVNLSCKASGYTFTDYWMHWVKQRPGQGLEWIGEIDPSDNFSNLNQNFRGKATLTVDKSSRTAFLQLSSLTSEDSAVYYCAVEDYWGQGTTLTVSSGGGGSGGGGSGGGGSGGGGSDIVMTQATPSVLVTPGEAVSISCRASRSLLHSNGITYLYWFLQRPGQSPQVLIYRMSNLVSGVPDRFSGSGSGTAFTLRISRVEAEDVGVYYCMQHLEFPYTFGGGTKLEIK
light: DIQMTQSPSSLSASVGDHVTITCRASQSISSYLNWYQQKPGKAPKLLIYAASSLQSGVPSRFSGSGSGTDFTLTISSLQPEDFATYYCQQYGSAPPTFGQGTKLEIK
t1/2 (min) of UU-30 in mouse plasma (LC-MS/MS): 424 min

B2: X-SM083-bi-9 (bispecific antibody)
heavy: not shown
light: DIQMTQSPSSLSASVGDHVTITCRASQSISSYLNWYQQKPGKAPKLLIYAASSLQSGVPSRFSGSGSGTDFTLTISSLQPEDFATYYCQQYGSAPPTFGQGTKLEIK
t1/2 (min) of UU-30 in mouse plasma (LC-MS/MS): 1340 min
